Five molecules from PMC6899631, “An essential pentatricopeptide repeat protein in the apicomplexan remnant chloroplast” can be followed below.

Broadly, the stoichiometry N is the number of molecules, sites or subunits per partner or assembly.

In data set [1] the target is PfPPR1 minus the His6-TRX tag (tag cleaved by HRV 3C protease) (Plasmodium falciparum). The experiment in a line: AUC; sedimentation velocity, PfPPR1 minus His6-TRX tag at 1.8 mg/mL, continuous c(s) distribution model.
Data set [2] addresses His6-TRX-PfPPR1 (Plasmodium falciparum apicoplast pentatricopeptide repeat protein PPR1, minus the bipartite leader, with N-terminal TRX-His6 tag) (Plasmodium falciparum). The experiment in a line: SEC; S200 10/300 analytical gel filtration column in 50 mM Tris pH 8.0, 200 mM NaCl, 5 mM DTT; sample in 10 mM HEPES pH 7.5, 20 mM KCl, 1 mM MgCl2, 1 mM DTT, 15 min at room temperature; control without RNA (with RNA 4 or RNA 5 the dimer eluted earlier, with RNA bound). In general terms: SEC sorts molecules by how far they enter the pores of the column.

Data set [3] deals with T1, His6-TRX-PfPPR1 (Plasmodium falciparum, UniProt Q8IM30 121-608).
T1 sequence: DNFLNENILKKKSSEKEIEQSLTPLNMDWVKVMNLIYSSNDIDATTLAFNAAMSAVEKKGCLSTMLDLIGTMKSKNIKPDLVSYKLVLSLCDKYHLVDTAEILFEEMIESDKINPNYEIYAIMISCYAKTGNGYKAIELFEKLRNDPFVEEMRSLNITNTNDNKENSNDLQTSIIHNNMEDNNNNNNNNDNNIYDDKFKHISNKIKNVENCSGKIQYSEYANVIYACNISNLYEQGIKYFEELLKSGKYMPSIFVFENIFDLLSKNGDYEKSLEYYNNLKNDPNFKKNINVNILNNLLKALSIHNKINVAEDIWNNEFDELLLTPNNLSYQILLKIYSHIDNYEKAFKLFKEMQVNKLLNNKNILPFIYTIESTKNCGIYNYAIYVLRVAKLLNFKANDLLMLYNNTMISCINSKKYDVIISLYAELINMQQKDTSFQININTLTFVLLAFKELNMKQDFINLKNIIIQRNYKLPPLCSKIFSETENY
As to the kind of experiment: pull-down; Pull-down: 10 mM HEPES pH 7.5, 20 mM KCl, 1 mM MgCl2, 1 mM DTT, room temperature 15 min; 400 nM biotinylated RNA, 800 nM protein (Results state 1:1 molar). Gel. As to conditions: protein: recombinant; tags: N-terminal TRX-His6 (HRV 3C cleavable); chain copies: 2; label: 3' biotin (pull-down).

With “PfPPR1 minus the His6-TRX tag (tag cleaved by HRV 3C protease) (natural protein)”, the stoichiometry N in data set [1] stood at 2. Molecule “His6-TRX-PfPPR1 (Plasmodium falciparum apicoplast pentatricopeptide repeat protein PPR1, minus the bipartite leader, with N-terminal TRX-His6 tag) (natural protein)” displayed a stoichiometry N in data set [2] of 2. Consider ACGACAUUAUAUGGUCGGA (ssRNA) [RNA oligo 1], for which the binding result in data set [3] is on record as “binds”.

As for ACGACAUGACGAGGUCGGA (ssRNA) [RNA oligo 3], the binding result in data set [3] is “no binding”.

Regarding ACGACAUUAUAAGGUCGGA (ssRNA) [RNA oligo 2], in data set [3], the binding result is “binds”.
